Biological target: T1, human Tetraspanin 33 (TSPAN33) (human, UniProt Q86UF1 1-283)
T1 sequence: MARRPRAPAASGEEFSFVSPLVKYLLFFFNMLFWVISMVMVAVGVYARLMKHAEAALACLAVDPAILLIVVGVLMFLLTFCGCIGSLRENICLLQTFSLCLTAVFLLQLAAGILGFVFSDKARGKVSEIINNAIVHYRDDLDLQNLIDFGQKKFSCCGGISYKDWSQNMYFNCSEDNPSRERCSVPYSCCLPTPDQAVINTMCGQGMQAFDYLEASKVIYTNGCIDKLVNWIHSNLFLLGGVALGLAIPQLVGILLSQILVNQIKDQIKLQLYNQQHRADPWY
Assay: flow cytometry on human PBMCs activated with CD40L and IL-4; detection with anti-mouse IgG PE
Description: Human peripheral blood mononuclear cells (PBMCs) were isolated in aseptic conditions through a gradient of Ficoll-Paque PLUS (GE Healthcare) according manufacturer instructions. The PBMCs were counted and adjusted in complete RPMI-1640 (10% fetal bovine serum, […] Penicillin, and 1 mg/ml Streptomycin) to a cell density of 1×10⁶ cells/mL. Cells were activated by adding CD40L (TNFSF5; 1 μg/mL) and recombinant human IL-4 (100 U/mL) to the culture. The cells were incubated overnight at 37° C. with 5% CO₂.
The next day the cells were washed with Biolegend's Cell Staining Buffer, and 1×10⁶ cells were stained for 15 minutes in the dark with anti-human CD20-APC and purified anti-human TSPAN33 or purified mouse IgG2b, k isotype control, in a volume of 100 μL. Cells were washed twice with 3 mL of Cell Staining Buffer and then stained for 15 minutes in the dark with anti-mouse IgG PE, in a volume of 100 μL. Then the cells were washed twice with 3 mL of Cell Staining Buffer and analyzed on a flow cytometer. 7-AAD Viability Staining Solution was used to exclude dead cells from analysis.

binding result: binds
B1: AB1, mouse anti-TSPAN33 monoclonal antibody (antibody, V domains shown)
VH: EVKLVESGGGLVQPGGSLSLSCAASGFTFTDYYMTWVRQPPGKALEWLVFIRNKANGYTTEYSASVKGRFTISRDNSQSILYLQMNALRAEDSATYYCARYLQTGNFDYWGQGTTLTVSS
VL: EIQMIQTTSSLTASLGDRVTISCRASQDISNFLNWYQQKPDGTIKLLIYFTSRLHSGVPSRFSGSGSGTDYSLTISNLEQEDIATYFCQQGYTVPPTFGGGTKLEIK
notes: Murine monoclonal antibody from a hybridoma; also called AB (clone) Number 1

— patent publication US20210095018A1 (BIOLEGEND, published 2021)
